Results reported in PMC4560640.

Biological target: base subcomplex, heterologously expressed in E. coli (S. cerevisiae) (UniProt P38764)

Ub-AMC cleavage activity of Ubp6 with purified base against Ubp6 alone: 300 fold
Substance: Ubp6, wild type (from UniProt P43593 1-499) (enzyme)
